Measurements published in patent US20210145978A1, “ANTI-CD71 ACTIVATABLE ANTIBODY DRUG CONJUGATES AND METHODS OF USE THEREOF” (AbbVie Inc., priority 2017, published 2021).

Legend:
[1] = Non-GLP pilot toxicity studies in cynomolgus monkeys; assay type: in vivo, cynomolgus monkey
Method: Terminal necropsies were performed on the test animals on day 29 (7 days after the last dose). Assessments during the study included clinical signs, body weight, food consumption, clinical pathology, anatomic pathology, TK, and immunogenicity.

[2] = Tolerability and stability of AADCs and ADC in cynomolgus monkeys (Example 10); assay type: in vivo, cynomolgus monkey
Method: In this study, cynomolgus monkeys were treated intravenously with the indicated AADC or ADC with the indicated dosage at days 1 and […]. Only one dose was tolerated for anti-CD71 TF02.13-3011-vc-MMAE AADC and only one dose was administered for anti-CD71-vc-MMAE E2 (i.e. having a DAR of ˜2) ADC. The stability of the activatable antibodies (i.e. total activatable antibody vs intact activatable antibody) in the samples obtained from each animals was performed as described in Example 9 using reverse phase LC/MS/MS)
The body weight loss was determined on the lowest measure weight following the 1st administered dose. The baseline neutrophil count was at least 1000 per μL.

[3] = test system: cynomolgus CD71 on CHO cells; experiment: FACS binding to cells, Table 3B; conditions: binding curves of FIG. 3D; read-out: CHO w/ Cynomolgus CD71 FACS EC50
From the text: (§1) FIGS. 3C and 3D show in a FACS assay the exemplary results that anti-CD71 activatable antibodies of the present disclosure and anti-CD71 conjugated activatable antibodies of the present disclosure bind cells expressing human CD71 (FIG. 3C) and cynomolgus CD71 (FIG. 3D) with a higher dissociation constant and lower affinity than that of the corresponding protease-activated anti-CD71 activatable antibody or protease-activated anti-CD71 conjugated activatable antibody of the present disclosure.
(§2) In the exemplary study shown in FIGS. 3C and 3D, the binding of the antibodies of the present disclosure to the indicated cell lines were performed using a standard FACS labelling method. […] In addition, the binding affinity of the anti-CD71 activatable antibody (anti-CD71 TF02.13-2011 (Act)) and the E2 (i.e. having a DAR of ˜2) anti-CD71 conjugated activatable antibody (anti-CD71 TF02.13-2011-vcMMAE E2 (Act)) were also assayed following protease-activation that cleaved the cleavable moiety therein. Each test article was applied at the indicated concentrations and subsequently detected with an Alexa Fluor 647 labeled goat anti-human IgG secondary antibody.

human CD71 on H292 cells = target: T1, human CD71 on H292 cells (Homo sapiens, UniProt P02786); experiment: FACS binding to cells, Table 3B; conditions: binding curves of FIG. 3C
T1 construct: endogenous in cells; host or cells: NCI-H292
From the text: as §1, §2

CD71 on NCI H292 cells = target: T2, CD71 on NCI H292 cells (Homo sapiens, UniProt P02786); experiment: FACS binding to NCI H292 cells, masking efficiency (Example 3); conditions: relative to parental Ab 21.12
T2 construct: endogenous in cells; host or cells: NCI-H292
Method: Binding of anti-CD71 activatable antibodies of the present disclosure to the NCI H292 (also referred to herein as H292) cell line was evaluated using FACS. Briefly, cells were labeled with huCD71 antibody or activatable antibody at a range of concentrations and subsequently detected with an Alexa Fluor 647 labeled goat anti-human IgG secondary antibody to determine a binding curve.

[4] = 0.6 mg/kg, q3wx2, non-GLP study

T1 sequence (P02786 whole entry): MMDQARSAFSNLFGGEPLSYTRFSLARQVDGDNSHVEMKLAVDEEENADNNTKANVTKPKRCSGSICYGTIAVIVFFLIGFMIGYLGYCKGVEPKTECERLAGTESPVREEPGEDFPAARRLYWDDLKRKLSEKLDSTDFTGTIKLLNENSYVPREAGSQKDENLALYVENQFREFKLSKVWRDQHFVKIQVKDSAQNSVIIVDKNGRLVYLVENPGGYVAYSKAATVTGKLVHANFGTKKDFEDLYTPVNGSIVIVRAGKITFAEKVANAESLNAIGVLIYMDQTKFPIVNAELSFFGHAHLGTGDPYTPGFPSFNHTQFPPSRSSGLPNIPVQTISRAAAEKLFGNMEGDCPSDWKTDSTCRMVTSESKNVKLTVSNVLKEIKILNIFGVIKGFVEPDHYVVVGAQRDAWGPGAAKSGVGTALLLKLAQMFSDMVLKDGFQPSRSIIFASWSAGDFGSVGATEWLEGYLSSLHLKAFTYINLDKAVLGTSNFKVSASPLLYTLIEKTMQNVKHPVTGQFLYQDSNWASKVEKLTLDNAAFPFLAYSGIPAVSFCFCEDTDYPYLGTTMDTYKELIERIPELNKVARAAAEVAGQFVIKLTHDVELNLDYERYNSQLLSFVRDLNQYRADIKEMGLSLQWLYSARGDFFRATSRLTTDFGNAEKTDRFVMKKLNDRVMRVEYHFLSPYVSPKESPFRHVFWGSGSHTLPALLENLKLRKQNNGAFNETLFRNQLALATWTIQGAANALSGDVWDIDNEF
T2 sequence (P02786 whole entry): as above

B1: Ab21.12-vc-MMAE E2: unmasked parental anti-CD71 antibody drug conjugate (ADC), Ab21.12 with vc-MMAE (conjugate)
VH: QVQLVQSGAEVKKPGASVKMSCKASGYTFTSYWMHWVRQAPGQGLEWIGAIYPGNSETGYAQKFQGRATLTADTSTSTAYMELSSLRSEDTAVYYCTRENWDPGFAFWGQGTLITVSS
VL: DIQMTQSPSSLSASVGDRVTITCSASSSVYYMYWFQQKPGKAPKLWIYSTSNLASGVPSRFSGSGSGTDYTLTISSMQPEDFATYYCQQRRNYPYTFGQGTKLEIK
modifications: vc-MMAE conjugate, DAR ~2
notes: unmasked parental anti-CD71 antibody drug conjugate (ADC), Ab21.12 with vc-MMAE
Average neutrophil count ± SD [1, 4]: 280 ± 42
Body weight loss [1, 4]: 4%
Tolerability [1, 4]: Tolerated
Average neutrophil count ± SD ([1]; 2 mg/kg, q3wx2, non-GLP study): 70
Body weight loss ([1]; 2 mg/kg, q3wx2, non-GLP study): 6%
test article-related findings ([1]; 0.6 to 18 mg/kg IV bolus): consisted primarily of hematologic toxicity
toxicity (hunched posture, decreased activity, body temperature elevation) ([1]; 6 and 2 mg/kg): Severe toxicity
time to lack of tolerability after a single dose ([1]; single dose at 2 mpk): ≤ 8 days
mortality ([1]; single dose at >2 mg/kg): mortality attributed to secondary infection was observed
Avg. Neutrophil Count ± SD (per μL) ([2]; 2 mg/kg IV, one dose, baseline at least 1000 per μL): 70 per μL
Body weight loss ([2]; 2 mg/kg IV, one dose, lowest weight after 1st dose): ~8%
lethality, time after the first dose ([2]; non-masked E2 ADC, cynomolgus monkeys (2 mg/kg in Table 5)): ≤ 8 days

B2: Ab 21.12-vc-M MAE: anti-CD71 Ab 21.12 conjugated to vc-MMAE; DAR not stated in Table 3B (conjugate)
VH: B1 VH
VL: B1 VL
modifications: vc-MMAE conjugate
EC50 [3]: 0.291 nM

B3: Ab21.12: humanized anti-CD71 antibody, VH of SEQ ID NO: 5 and VL of SEQ ID NO: 7 (antibody, V domains shown)
VH: B1 VH
VL: B1 VL
EC50 (human CD71 on H292 cells): 1.02 nM
Masking Efficiency (CD71 on NCI H292 cells): 1
